Data as given in US20160024487.

What was measured:
[1] = system: T1, Lys(Dnp)-ATNATX4X3PRIVGG-Lys(Abz), X4 = A, X3 = E
T1 sequence: KATNATAEPRIVGGK

[2] = system: T2, Lys(Dnp)-ATNATX4X3PRIVGG-Lys(Abz), X4 = D, X3 = F
T2 sequence: KATNATDFPRIVGGK

[3] = system: T3, Lys(Dnp)-ATNATX4X3PRIVGG-Lys(Abz), X4 = E, X3 = A
T3 sequence: KATNATEAPRIVGGK

[4] = system: T4, Lys(Dnp)-ATNATX4X3PRIVGG-Lys(Abz), X4 = E, X3 = H
T4 sequence: KATNATEHPRIVGGK

[5] = system: T5, Lys(Dnp)-ATNATX4X3PRIVGG-Lys(Abz), X4 = E, X3 = K
T5 sequence: KATNATEKPRIVGGK

[6] = system: T6, Lys(Dnp)-ATNATX4X3PRIVGG-Lys(Abz), X4 = G, X3 = F
T6 sequence: KATNATGFPRIVGGK

[7] = system: T7, Lys(Dnp)-ATNATX4X3PRIVGG-Lys(Abz), X4 = G, X3 = M
T7 sequence: KATNATGMPRIVGGK

[8] = system: T8, Lys(Dnp)-ATNATX4X3PRIVGG-Lys(Abz), X4 = G, X3 = P
T8 sequence: KATNATGPPRIVGGK

[9] = system: T9, Lys(Dnp)-ATNATX4X3PRIVGG-Lys(Abz), X4 = G, X3 = Q
T9 sequence: KATNATGQPRIVGGK

[10] = system: T10, Lys(Dnp)-ATNATX4X3PRIVGG-Lys(Abz), X4 = G, X3 = R
T10 sequence: KATNATGRPRIVGGK

[11] = system: T11, Lys(Dnp)-ATNATX4X3PRIVGG-Lys(Abz), X4 = G, X3 = S
T11 sequence: KATNATGSPRIVGGK

[12] = system: T12, Lys(Dnp)-ATNATX4X3PRIVGG-Lys(Abz), X4 = G, X3 = V
T12 sequence: KATNATGVPRIVGGK

[13] = system: T13, Lys(Dnp)-ATNATX4X3PRIVGG-Lys(Abz), X4 = H, X3 = G
T13 sequence: KATNATHGPRIVGGK

[14] = system: T14, Lys(Dnp)-ATNATX4X3PRIVGG-Lys(Abz), X4 = H, X3 = K
T14 sequence: KATNATHKPRIVGGK

[15] = system: T15, Lys(Dnp)-ATNATX4X3PRIVGG-Lys(Abz), X4 = H, X3 = Q
T15 sequence: KATNATHQPRIVGGK

[16] = system: T16, Lys(Dnp)-ATNATX4X3PRIVGG-Lys(Abz), X4 = H, X3 = T
T16 sequence: KATNATHTPRIVGGK

[17] = system: T17, Lys(Dnp)-ATNATX4X3PRIVGG-Lys(Abz), X4 = H, X3 = W
T17 sequence: KATNATHWPRIVGGK

[18] = system: T18, Lys(Dnp)-ATNATX4X3PRIVGG-Lys(Abz), X4 = H, X3 = Y
T18 sequence: KATNATHYPRIVGGK

[19] = system: T19, Lys(Dnp)-ATNATX4X3PRIVGG-Lys(Abz), X4 = K, X3 = D
T19 sequence: KATNATKDPRIVGGK

[20] = system: T20, Lys(Dnp)-ATNATX4X3PRIVGG-Lys(Abz), X4 = K, X3 = F
T20 sequence: KATNATKFPRIVGGK

[21] = system: T21, Lys(Dnp)-ATNATX4X3PRIVGG-Lys(Abz), X4 = M, X3 = E
T21 sequence: KATNATMEPRIVGGK

[22] = system: T22, Lys(Dnp)-ATNATX4X3PRIVGG-Lys(Abz), X4 = N, X3 = G
T22 sequence: KATNATNGPRIVGGK

[23] = system: T23, Lys(Dnp)-ATNATX4X3PRIVGG-Lys(Abz), X4 = N, X3 = M
T23 sequence: KATNATNMPRIVGGK

[24] = system: T24, Lys(Dnp)-ATNATX4X3PRIVGG-Lys(Abz), X4 = N, X3 = Y
T24 sequence: KATNATNYPRIVGGK

[25] = system: T25, Lys(Dnp)-ATNATX4X3PRIVGG-Lys(Abz), X4 = P, X3 = E
T25 sequence: KATNATPEPRIVGGK

[26] = system: T26, Lys(Dnp)-ATNATX4X3PRIVGG-Lys(Abz), X4 = P, X3 = N
T26 sequence: KATNATPNPRIVGGK

[27] = system: T27, Lys(Dnp)-ATNATX4X3PRIVGG-Lys(Abz), X4 = P, X3 = P
T27 sequence: KATNATPPPRIVGGK

[28] = system: T28, Lys(Dnp)-ATNATX4X3PRIVGG-Lys(Abz), X4 = Q, X3 = M
T28 sequence: KATNATQMPRIVGGK

[29] = system: T29, Lys(Dnp)-ATNATX4X3PRIVGG-Lys(Abz), X4 = Q, X3 = Q
T29 sequence: KATNATQQPRIVGGK

[30] = system: T30, Lys(Dnp)-ATNATX4X3PRIVGG-Lys(Abz), X4 = S, X3 = D
T30 sequence: KATNATSDPRIVGGK

[31] = system: T31, Lys(Dnp)-ATNATX4X3PRIVGG-Lys(Abz), X4 = S, X3 = F
T31 sequence: KATNATSFPRIVGGK

[32] = system: T32, Lys(Dnp)-ATNATX4X3PRIVGG-Lys(Abz), X4 = S, X3 = R
T32 sequence: KATNATSRPRIVGGK

[33] = system: T33, Lys(Dnp)-ATNATX4X3PRIVGG-Lys(Abz), X4 = S, X3 = W
T33 sequence: KATNATSWPRIVGGK

[34] = system: T34, Lys(Dnp)-ATNATX4X3PRIVGG-Lys(Abz), X4 = T, X3 = E
T34 sequence: KATNATTEPRIVGGK

[35] = system: T35, Lys(Dnp)-ATNATX4X3PRIVGG-Lys(Abz), X4 = T, X3 = I
T35 sequence: KATNATTIPRIVGGK

[36] = system: T36, Lys(Dnp)-ATNATX4X3PRIVGG-Lys(Abz), X4 = T, X3 = S
T36 sequence: KATNATTSPRIVGGK

[37] = system: T37, Lys(Dnp)-ATNATX4X3PRIVGG-Lys(Abz), X4 = W, X3 = I
T37 sequence: KATNATWIPRIVGGK

[38] = system: T38, Lys(Dnp)-ATNATX4X3PRIVGG-Lys(Abz), X4 = Y, X3 = D
T38 sequence: KATNATYDPRIVGGK

[39] = system: T39, Lys(Dnp)-ATNATX4X3PRIVGG-Lys(Abz), X4 = Y, X3 = E
T39 sequence: KATNATYEPRIVGGK

In the case of Human plasma purified Factor Xa, the FXa kcat/KM [1] was 180 M⁻¹ s⁻¹, the FXa kcat/KM [2] was 11 M⁻¹ s⁻¹ and the FXa kcat/KM [3] was 4.3 M⁻¹ s⁻¹. The FXa kcat/KM [4] was 7.7 M⁻¹ s⁻¹, the FXa kcat/KM [5] was 7.9 M⁻¹ s⁻¹ and the FXa kcat/KM [6] was 35 M⁻¹ s⁻¹. The FXa kcat/KM [7] was 52 M⁻¹ s⁻¹, the FXa kcat/KM [8] was 7.5 M⁻¹ s⁻¹ and the FXa kcat/KM [9] was 94 M⁻¹ s⁻¹. For the same substance, the FXa kcat/KM [10] was 130 M⁻¹ s⁻¹, the FXa kcat/KM [11] was 49 M⁻¹ s⁻¹ and the FXa kcat/KM [12] was 40 M⁻¹ s⁻¹. For the same substance, the FXa kcat/KM [13] was 47 M⁻¹ s⁻¹, the FXa kcat/KM [14] was 28 M⁻¹ s⁻¹ and the FXa kcat/KM [15] was 160 M⁻¹ s⁻¹. It also gave an FXa kcat/KM [16] of 50 M⁻¹ s⁻¹, an FXa kcat/KM [17] of 320 M⁻¹ s⁻¹ and an FXa kcat/KM [18] of 41 M⁻¹ s⁻¹. For the same substance, the FXa kcat/KM [19] was 45 M⁻¹ s⁻¹, the FXa kcat/KM [20] was 35 M⁻¹ s⁻¹ and the FXa kcat/KM [21] was 600 M⁻¹ s⁻¹. It also gave an FXa kcat/KM [22] of 9.2 M⁻¹ s⁻¹, an FXa kcat/KM [23] of 27 M⁻¹ s⁻¹ and an FXa kcat/KM [24] of 15 M⁻¹ s⁻¹. For the same substance, the FXa kcat/KM [25] was 1000 M⁻¹ s⁻¹, the FXa kcat/KM [26] was 580 M⁻¹ s⁻¹ and the FXa kcat/KM [27] was 14 M⁻¹ s⁻¹. For the same substance, the FXa kcat/KM [28] was 2200 M⁻¹ s⁻¹, the FXa kcat/KM [29] was 1400 M⁻¹ s⁻¹ and the FXa kcat/KM [30] was 10 M⁻¹ s⁻¹. It also gave an FXa kcat/KM [31] of 17 M⁻¹ s⁻¹, an FXa kcat/KM [32] of 130 M⁻¹ s⁻¹ and an FXa kcat/KM [33] of 43 M⁻¹ s⁻¹. The FXa kcat/KM [34] was 15 M⁻¹ s⁻¹, the FXa kcat/KM [35] was 63 M⁻¹ s⁻¹ and the FXa kcat/KM [36] was 16 M⁻¹ s⁻¹. For the same substance, the FXa kcat/KM [37] was 180 M⁻¹ s⁻¹, the FXa kcat/KM [38] was 36 M⁻¹ s⁻¹ and the FXa kcat/KM [39] was 54 M⁻¹ s⁻¹.
